Source: patent publication US8697386B2, “Methods and compositions for modulating hepsin activation of macrophage-stimulating protein” (Genentech, Inc., priority 2009, dated 2014)
* marks the point of attachment. CH2Cl = ClC*

Experiments:
[1] = molecular target: T1, cell surface expressed hepsin in LnCap-34 cells (Homo sapiens, UniProt P05981); assay: Pro-MSP activation by cell surface expressed hepsin in LnCap-34 cells; type: cell-based; settings: 1 μM inhibitor, 15 minutes preincubation, 125I-pro-MSP 25 μg/ml, 3 hours, 37° C.
T1 construct: expressed in transfected cells; host or cells: LnCaP-34 cells
Procedure: Confluent LnCap-34 cells cultured in 24-well plates were washed with serum-free RPMI-1640 medium and were incubated either alone or with different anti-hepsin inhibitors (1 μM of anti-hepsin antibody Fab25/1 μM of KD1/1 μM of Ac-KQLR-cmk (‘KLQR” disclosed as SEQ ID NO:10)) in serum-free RPMI-1640 medium for 15 minutes at 37° C. prior to addition of 125I-labeled pro-MSP (25 μg/ml). After incubation for 3 hours at 37° C., aliquots were removed and analyzed by SDS-PAGE (4-20% gradient gel) (Invitrogen, Carlsbad, Calif.) followed by exposure to X-ray films.

Ron signaling pathway = assay: Immunoblot for phosphorylated downstream kinases in A2780 cells overexpressing human Ron; type: cell-based; settings: pro-MSP 10 and 50 ng/ml, 10 nM hepsin, 1 hour
Procedure: Immunoblot for the detection of phosphorylated kinases: A human ovarian carcinoma cell line (A2780) overexpressing human Ron was used to study the phosphorylation of Ron and other downstream kinase. Cells at a density of 2×10^5 cells/well were cultured in 12-well plate and serum-starved for 24 hours. The cells were then stimulated with either pro-MSP (10 and 50 ng/ml) alone or in presence of 10 nM Hepsin for 1 hour. Mature MSP from a commercial source and hepsin were used as controls. Samples were prepared by washing cells twice with cold PBS followed by addition of 200 ul lysis buffer. Samples were then analyzed by SDS/PAGE on 4-12% Tris-glycine gels (Invitrogen, Carlsbad, Calif.). Proteins were transferred onto nitrocellulose membranes and subsequently treated with anti-Ron antibody or anti-phospho-AKT antibody or anti-phospho-MAPK antibody or anti-phospho-S6 antibody, overnight at 4° C. After washing, membranes were incubated with IRDye800-conjugated goat anti-mouse IgG (Rockland, Gilbertsville, Pa.) and AlexaFluor 680 goat anti-rabbit IgG (Invitrogen) for 1 h. Proteins were detected with the Odyssey Infrared Imaging System (LI-COR Biosciences, Lincoln, Nebr.).

T1 sequence (P05981 whole entry): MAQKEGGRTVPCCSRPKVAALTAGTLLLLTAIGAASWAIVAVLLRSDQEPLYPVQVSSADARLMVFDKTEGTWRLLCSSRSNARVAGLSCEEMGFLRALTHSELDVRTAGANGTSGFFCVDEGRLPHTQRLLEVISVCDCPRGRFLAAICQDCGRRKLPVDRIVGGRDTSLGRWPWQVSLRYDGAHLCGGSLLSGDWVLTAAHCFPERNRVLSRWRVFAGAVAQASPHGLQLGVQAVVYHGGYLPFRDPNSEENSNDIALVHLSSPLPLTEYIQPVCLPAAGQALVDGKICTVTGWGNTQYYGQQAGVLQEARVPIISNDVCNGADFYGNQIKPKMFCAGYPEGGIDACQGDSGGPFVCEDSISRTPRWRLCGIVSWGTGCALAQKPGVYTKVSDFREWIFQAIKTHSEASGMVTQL

Substance	blocking of pro-MSP proteolytic cleavage by cell surface hepsin [1]	phosphorylation of MAP kinase and S6 kinase (activation of Ron signaling pathway) (Ron signaling pathway)
KD1: Kunitz domain 1 (KD1) of HAI-1 or HAI-1B, hepsin inhibitor (TEDYCLASNKVGRCRGSFPRWYYDPTEQICKSFVYGGCLGNKNNYLREEECILACRGV)	effectively blocked	
Ac-KQLR-chloromethylketone (Ac-KQLR-CH2Cl; SMILES CC(=O)N[C@@H](CCCCN)C(=O)N[C@@H](CCC(N)=O)C(=O)N[C@@H](CC(C)C)C(=O)N[C@@H](CCCNC(=N)N)C(=O)CCl) [reference compound]	effectively blocked	
hepsin: extracellular domain of the human recombinant hepsin, type II transmembrane serine protease		Neither hepsin nor pro-MSP alone was effective
